Experimental data reported in paper PMC10998613.
Like-named read-outs stand apart in the source and are kept apart here.

T1: CXCR4-AcGFP1 / CXCR4-mCherry (C-X-C motif chemokine receptor 4 with a C-terminal fluorescent protein) (human), P61073
T1 chain: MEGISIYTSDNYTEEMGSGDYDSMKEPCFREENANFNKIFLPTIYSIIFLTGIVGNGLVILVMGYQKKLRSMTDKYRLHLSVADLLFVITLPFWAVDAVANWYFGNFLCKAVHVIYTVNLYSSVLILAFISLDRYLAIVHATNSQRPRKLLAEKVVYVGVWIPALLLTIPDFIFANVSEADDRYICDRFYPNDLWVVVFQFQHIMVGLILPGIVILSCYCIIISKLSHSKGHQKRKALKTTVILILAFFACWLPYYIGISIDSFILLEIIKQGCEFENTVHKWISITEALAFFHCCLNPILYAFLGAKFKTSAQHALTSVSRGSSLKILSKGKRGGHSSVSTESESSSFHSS

B1: CXCR4-AcGFP1 / CXCR4-mCherry (C-X-C motif chemokine receptor 4 with a C-terminal fluorescent protein), P61073 1-352 (receptor)
chain: T1 chain

Experiments:
Assay in all cases: PIE-FCCS
[1] = target: β2AR-AcGFP1 / β2AR-mCherry (β2-adrenergic receptor with a C-terminal fluorescent protein) (human) (UniProt P07550)
[2] = target: β2AR-AcGFP1 / β2AR-mCherry (β2-adrenergic receptor with a C-terminal fluorescent protein) (human) (UniProt P07550); remark: listed apart in the source
[3] = target: T1, CXCR4-AcGFP1 / CXCR4-mCherry (C-X-C …); conditions: remark: other sources report otherwise
[4] = target: T1, CXCR4-AcGFP1 / CXCR4-mCherry (C-X-C …); conditions: remark: other sources report otherwise

Row | Molecule | fc [1] | fc [2] | mean fc [3] | median fc [3] | median fc [4]
1 | β2AR-AcGFP1 / β2AR-mCherry (β2-adrenergic receptor with a C-terminal fluorescent protein) (from UniProt P07550 1-413) | 0.11 | 0.13 |  |  | 
2 | B1 |  |  | 0.39 | 0.31 | 0.18
